Molecular target: FLAG-SF2/ASF purified (human, UniProt Q07955 1-248)
Test: EMSA
Settings: protein: recombinant; tags: FLAG; label: IRDye-800

FLAG-SF2/ASF purified, sequence (Q07955 whole entry): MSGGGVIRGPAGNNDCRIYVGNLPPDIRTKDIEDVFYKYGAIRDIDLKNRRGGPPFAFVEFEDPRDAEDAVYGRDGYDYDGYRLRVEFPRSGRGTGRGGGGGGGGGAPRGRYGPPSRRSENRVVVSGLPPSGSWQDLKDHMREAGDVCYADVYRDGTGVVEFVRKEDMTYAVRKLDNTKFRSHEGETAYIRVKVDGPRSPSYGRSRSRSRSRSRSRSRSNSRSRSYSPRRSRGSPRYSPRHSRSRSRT

Binder: GACAUACUGACAAGGAUGUC (ssRNA) [H7N9-NS-529-548 (NEP-ESE, 540A, WT)]
- binding result: binds

Reference: publication PMC5364394
